Test results as given in publication PMC9052748, “The Di-Iron Protein YtfE Is a Nitric Oxide-Generating Nitrite Reductase Involved in the Management of Nitrosative Stress” (Journal of the American Chemical Society, 2022).

How the values were obtained:
[1] = molecular target: T1, YtfE (Escherichia coli, UniProt P69506); test: initial rates of DTT-mediated reduction of air-exposed YtfE (A340 nm), binding isotherm; type: biochemical; conditions: air-exposed (oxidized) YtfE ~90 μM; DTT 0 to 80 mM; reductant; apparent value from rates
T1 construct: C-terminal His tag (pGS2618, pET24a derivative), expressed in E. coli BL21 (DE3)-T1R, purified anaerobically; di-iron holo form, 26,154 Da, monomer
Description: initial rates of DTT-mediated reduction of air-exposed YtfE (A340 nm), binding isotherm on YtfE | fitted using a simple binding isotherm, from which a Kd was obtained

[2] = substrate: O=NO; test: purified protein; type: biochemical, Escherichia coli; conditions: di-ferrous YtfE 10 μM, reductant dithionite-reduced methyl viologen 58 μM, pH 7.5, 100 mM Tris, anaerobic

Row | Kd [1] [mM] | Molecule | Km [2] | Vmax [2] [µmol/min/mg] | kcat [2] [s⁻¹] | kcat/Km [2] [M⁻¹ s⁻¹]
1 | 7.3 | OC(CS)C(O)CS (stereo not drawn) [DTT] | – | – | – | –
2 | – | YtfE (Escherichia coli K-12) (protein, C-terminal His tag (pGS2618, pET24a derivative), expressed in E. coli BL21 (DE3)-T1R, purified anaerobically; di-iron holo form, 26,154 Da, monomer) MAYRDQPLGELALSIPRASALFRKYDMDYCCGGKQTLARAAARKELDVEVIEAELAKLAEQPIEKDWRSAPLAEIIDHIIVRYHDRHREQLPELILQATKVERVHADKPSVPKGLTKYLTMLHEELSSHMMKEEQILFPMIKQGMGSQAMGPISVMESEHDEAGELLEVIKHTTNNVTPPPEACTTWKAMYNGINELIDDLMDHISLENNVLFPRALAGE | 252 (± 32) μM | 1.33 | 0.58 ± 0.0265 | 2300 ± 105
3 | – | YtfE (Escherichia coli K-12; C30A/C31A) (protein, C-terminal His tag (pGS2618, pET24a derivative), expressed in E. coli BL21 (DE3)-T1R, purified anaerobically; di-iron holo form, 26,154 Da, monomer) MAYRDQPLGELALSIPRASALFRKYDMDYAAGGKQTLARAAARKELDVEVIEAELAKLAEQPIEKDWRSAPLAEIIDHIIVRYHDRHREQLPELILQATKVERVHADKPSVPKGLTKYLTMLHEELSSHMMKEEQILFPMIKQGMGSQAMGPISVMESEHDEAGELLEVIKHTTNNVTPPPEACTTWKAMYNGINELIDDLMDHISLENNVLFPRALAGE | 288 (± 29) μM | 1.59 | 0.693 ± 0.0263 | 2410 ± 91.7
